Test results from the supplement of paper PMC6757056.
± gives the standard deviation of the averaged measurements.

B1: library; a variant is named by its letters at N, in order (parent)
chain: GCUGUCACCGAGAAACUGUGAAGUAUAUCUUAAACCUGGGCACUUAAAAGAUAUAUGGAGUUAGUAGUGCAACCUGCUCGGUCUGAUGAGUCCNNNNNNGGACGAAACAGC

How the values were obtained:
[1] = variants of: B1; assay: FACS-Seq fitted mean relative fluorescence mCherry/BFP without ligand (log10 relative fluorescence); HEK293T; ligand: cyclic di-GMP (c-di-GMP-II aptamer); higher = higher reporter protein expression; conditions: ligand present: no
How it was run: (§1)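 The ribozyme switch sat in an mCherry reporter, delivered by lentivirus into HEK293T libraries along with an EF1α-BFP marker. Enriched cells were incubated 48 h with or without ligand, sorted into 6 bins by mCherry/BFP, and bin genomic DNA was PCR-amplified, barcoded and MiSeq-sequenced. Fluorescence equals the fitted normal mean of the bin counts after normalization. Those log10(mCherry/BFP) means were scaled to five spiked-in control ribozymes.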

[2] = variants of: B1; assay: normalized RNA/DNA level without ligand (relative to sTRSVctl = 100) (log10 (% of sTRSVctl)); HEK293T; ligand: cyclic di-GMP (c-di-GMP-II aptamer); higher = less ribozyme self-cleavage, higher mRNA level; conditions: reporter: mCherry (pCS4076), ligand present: no
How it was run: (§2)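 Ribozyme switch library plasmids linked to reporters were introduced into HEK293T cells at 4 µg per 6-well well, with ligand, if any, added 1 h before. Total RNA was extracted with EDTA 72 h later, reverse-transcribed, amplified, barcoded and sequenced. RNA level was computed from RNA over DNA reads relative to a spiked-in non-cleaving sequence or the top sequences, then scaled and log-transformed. The top set was 25 sequences, values were ×100 and log10, and the cutoff was ≥100 DNA reads.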

[3] = variants of: B1; assay: FACS-Seq fitted mean relative fluorescence mCherry/BFP with ligand (log10 relative fluorescence); HEK293T; ligand: cyclic di-GMP (c-di-GMP-II aptamer); ligand concentration (+) FACS-Seq: 1 mM; higher = higher reporter protein expression; conditions: ligand present: yes
How it was run: as §1

[4] = variants of: B1; assay: normalized RNA/DNA level with ligand (relative to sTRSVctl = 100) (log10 (% of sTRSVctl)); HEK293T; ligand: cyclic di-GMP (c-di-GMP-II aptamer); ligand concentration (+) RNA-Seq: 1 mM; higher = less ribozyme self-cleavage, higher mRNA level; conditions: reporter: mCherry (pCS4076), ligand present: yes
How it was run: as §2

GUCCAA
FACS-Seq fitted mean (log10) [1]: 0.102 ± 0.033 | normalized RNA/DNA level without ligand (log10) [2]: 1.57 ± 0.052 | FACS-Seq fitted mean (log10) [3]: 0.317 ± 0.11 | normalized RNA/DNA level with ligand (log10) [4]: 1.74 ± 0.12

UUACCA
FACS-Seq fitted mean (log10) [1]: -0.0643 ± 0.075 | normalized RNA/DNA level without ligand (log10) [2]: 1.75 ± 0.055 | FACS-Seq fitted mean (log10) [3]: 0.275 ± 0.047 | normalized RNA/DNA level with ligand (log10) [4]: 1.84 ± 0.1

UUACCC
FACS-Seq fitted mean (log10) [1]: -0.256 ± 0.059 | normalized RNA/DNA level without ligand (log10) [2]: 1.798 ± 0.0066 | FACS-Seq fitted mean (log10) [3]: 0.0203 ± 0.12 | normalized RNA/DNA level with ligand (log10) [4]: 1.88 ± 0.11

GUACAA
FACS-Seq fitted mean (log10) [1]: -0.163 ± 0.036 | normalized RNA/DNA level without ligand (log10) [2]: 1.5 ± 0.065 | FACS-Seq fitted mean (log10) [3]: 0.191 ± 0.07 | normalized RNA/DNA level with ligand (log10) [4]: 1.68 ± 0.061

GUCACU
FACS-Seq fitted mean (log10) [1]: -0.159 ± 0.13 | normalized RNA/DNA level without ligand (log10) [2]: 1.708 ± 0.0022 | FACS-Seq fitted mean (log10) [3]: 0.131 ± 0.035 | normalized RNA/DNA level with ligand (log10) [4]: 1.85 ± 0.08

GUCACG
FACS-Seq fitted mean (log10) [1]: -0.35 ± 0.017 | normalized RNA/DNA level without ligand (log10) [2]: 1.64 ± 0.028 | FACS-Seq fitted mean (log10) [3]: -0.131 ± 0.21 | normalized RNA/DNA level with ligand (log10) [4]: 1.84 ± 0.085

CGGUCA
FACS-Seq fitted mean (log10) [1]: -0.42 ± 0.019 | normalized RNA/DNA level without ligand (log10) [2]: 1.45 ± 0.045 | FACS-Seq fitted mean (log10) [3]: -0.182 ± 0.032 | normalized RNA/DNA level with ligand (log10) [4]: 1.59 ± 0.18

CGGUCC
FACS-Seq fitted mean (log10) [1]: -0.137 ± 0.077 | normalized RNA/DNA level without ligand (log10) [2]: 1.8527 ± 0.0016 | FACS-Seq fitted mean (log10) [3]: 0.251 ± 0.017 | normalized RNA/DNA level with ligand (log10) [4]: 1.96 ± 0.069

AUCCUG
FACS-Seq fitted mean (log10) [1]: -0.263 ± 0.061 | normalized RNA/DNA level without ligand (log10) [2]: 1.67 ± 0.017 | FACS-Seq fitted mean (log10) [3]: -0.151 ± 0.016 | normalized RNA/DNA level with ligand (log10) [4]: 1.78 ± 0.13

UGUGAU
FACS-Seq fitted mean (log10) [1]: -0.736 ± 0.12 | normalized RNA/DNA level without ligand (log10) [2]: 1.676 ± 0.012 | FACS-Seq fitted mean (log10) [3]: -0.5759 ± 0.0014 | normalized RNA/DNA level with ligand (log10) [4]: 1.81 ± 0.13

UGUGAC
FACS-Seq fitted mean (log10) [1]: 0.123 ± 0.24 | normalized RNA/DNA level without ligand (log10) [2]: 1.644 ± 0.015 | FACS-Seq fitted mean (log10) [3]: 0.27 ± 0.01 | normalized RNA/DNA level with ligand (log10) [4]: 1.79 ± 0.082

AGUGAC
FACS-Seq fitted mean (log10) [1]: -0.339 ± 0.017 | normalized RNA/DNA level without ligand (log10) [2]: 1.63 ± 0.038 | FACS-Seq fitted mean (log10) [3]: -0.00165 ± 0.05 | normalized RNA/DNA level with ligand (log10) [4]: 1.77 ± 0.13

AGUGAA
FACS-Seq fitted mean (log10) [1]: -0.389 ± 0.095 | normalized RNA/DNA level without ligand (log10) [2]: 1.36 ± 0.097 | FACS-Seq fitted mean (log10) [3]: 0.0166 ± 0.093 | normalized RNA/DNA level with ligand (log10) [4]: 1.54 ± 0.096

AGUGUC
FACS-Seq fitted mean (log10) [1]: -0.2695 ± 0.0013 | normalized RNA/DNA level without ligand (log10) [2]: 1.62 ± 0.071 | FACS-Seq fitted mean (log10) [3]: 0.0884 ± 0.21 | normalized RNA/DNA level with ligand (log10) [4]: 1.76 ± 0.052

CUAAUU
FACS-Seq fitted mean (log10) [1]: -0.314 ± 0.073 | normalized RNA/DNA level without ligand (log10) [2]: 1.537 ± 0.0049 | FACS-Seq fitted mean (log10) [3]: 0.0103 ± 0.0086 | normalized RNA/DNA level with ligand (log10) [4]: 1.74 ± 0.081

CUAAUA
FACS-Seq fitted mean (log10) [1]: -0.533 ± 0.025 | normalized RNA/DNA level without ligand (log10) [2]: 1.39 ± 0.066 | FACS-Seq fitted mean (log10) [3]: -0.316 ± 0.011 | normalized RNA/DNA level with ligand (log10) [4]: 1.6 ± 0.12

CUAAUG
FACS-Seq fitted mean (log10) [1]: -0.485 ± 0.042 | normalized RNA/DNA level without ligand (log10) [2]: 1.49 ± 0.13 | FACS-Seq fitted mean (log10) [3]: -0.179 ± 0.011 | normalized RNA/DNA level with ligand (log10) [4]: 1.7 ± 0.092

UGUACU
FACS-Seq fitted mean (log10) [1]: -0.0524 ± 0.051 | normalized RNA/DNA level without ligand (log10) [2]: 1.76 ± 0.05 | FACS-Seq fitted mean (log10) [3]: 0.296 ± 0.04 | normalized RNA/DNA level with ligand (log10) [4]: 1.87 ± 0.094
